Measured values from patent publication US20150087577A1 (POLYPHOR, published 2015).
Bridges are numbered along the chain shown (N, C = ends). [ ]: non-standard residue; d: D form. 2Nal = N[C@@H](Cc1ccc2ccccc2c1)C(=O)O; Cit = NC(=O)NCCC[C@H](N)C(=O)O; Dab = NCC[C@H](N)C(=O)O

B1: Example 1 (peptide)
peptide: cyclo(YR[Cit]VR[dR]R[2Nal]FY[Cit]K[dP]P)
SMILES: CC(C)[C@@H]1NC(=O)[C@H](CCCNC(N)=O)NC(=O)[C@H](CCCNC(=N)N)NC(=O)[C@H](Cc2ccc(O)cc2)NC(=O)[C@@H]2CCCN2C(=O)[C@H]2CCCN2C(=O)[C@H](CCCCN)NC(=O)[C@H](CCCNC(N)=O)NC(=O)[C@H](Cc2ccc(O)cc2)NC(=O)[C@H](Cc2ccccc2)NC(=O)[C@H](Cc2ccc3ccccc3c2)NC(=O)[C@H](CCCNC(=N)N)NC(=O)[C@@H](CCCNC(=N)N)NC(=O)[C@H](CCCNC(=N)N)NC1=O
B2: Example 24 (peptide)
peptide: cyclo(YR[Cit]FRFPRR[2Nal]VY[Cit]K[dP]P)
SMILES: CC(C)[C@@H]1NC(=O)[C@H](Cc2ccc3ccccc3c2)NC(=O)[C@H](CCCNC(=N)N)NC(=O)[C@H](CCCNC(=N)N)NC(=O)[C@@H]2CCCN2C(=O)[C@H](Cc2ccccc2)NC(=O)[C@H](CCCNC(=N)N)NC(=O)[C@H](Cc2ccccc2)NC(=O)[C@H](CCCNC(N)=O)NC(=O)[C@H](CCCNC(=N)N)NC(=O)[C@H](Cc2ccc(O)cc2)NC(=O)[C@@H]2CCCN2C(=O)[C@H]2CCCN2C(=O)[C@H](CCCCN)NC(=O)[C@H](CCCNC(N)=O)NC(=O)[C@H](Cc2ccc(O)cc2)NC1=O
B3: Example 135 (peptide)
peptide: cyclo(YR[Cit]CRG[dP][Dab]R[2Nal]CY[Cit]K[dP]P)
modifications: disulfide 4-11
SMILES: N=C(N)NCCC[C@@H]1NC(=O)[C@@H]2CSSC[C@H](NC(=O)[C@H](Cc3ccc4ccccc4c3)NC(=O)[C@H](CCCNC(=N)N)NC(=O)[C@H](CCN)NC(=O)[C@H]3CCCN3C(=O)CNC1=O)C(=O)N[C@@H](Cc1ccc(O)cc1)C(=O)N[C@@H](CCCNC(N)=O)C(=O)N[C@@H](CCCCN)C(=O)N1CCC[C@@H]1C(=O)N1CCC[C@H]1C(=O)N[C@@H](Cc1ccc(O)cc1)C(=O)N[C@@H](CCCNC(=N)N)C(=O)N[C@@H](CCCNC(N)=O)C(=O)N2
B4: Example 136 (peptide)
peptide: cyclo(YR[Cit]CRG[dP][Cit]RWCY[Cit]K[dP]P)
modifications: disulfide 4-11
SMILES: N=C(N)NCCC[C@@H]1NC(=O)[C@@H]2CSSC[C@H](NC(=O)[C@H](Cc3c[nH]c4ccccc34)NC(=O)[C@H](CCCNC(=N)N)NC(=O)[C@H](CCCNC(N)=O)NC(=O)[C@H]3CCCN3C(=O)CNC1=O)C(=O)N[C@@H](Cc1ccc(O)cc1)C(=O)N[C@@H](CCCNC(N)=O)C(=O)N[C@@H](CCCCN)C(=O)N1CCC[C@@H]1C(=O)N1CCC[C@H]1C(=O)N[C@@H](Cc1ccc(O)cc1)C(=O)N[C@@H](CCCNC(=N)N)C(=O)N[C@@H](CCCNC(N)=O)C(=O)N2
B5: Example 137 (peptide)
peptide: cyclo(YR[Cit]CRG[dP]HRWCY[Cit]K[dP]P)
modifications: disulfide 4-11
SMILES: N=C(N)NCCC[C@@H]1NC(=O)[C@@H]2CSSC[C@H](NC(=O)[C@H](Cc3c[nH]c4ccccc34)NC(=O)[C@H](CCCNC(=N)N)NC(=O)[C@H](Cc3c[nH]cn3)NC(=O)[C@H]3CCCN3C(=O)CNC1=O)C(=O)N[C@@H](Cc1ccc(O)cc1)C(=O)N[C@@H](CCCNC(N)=O)C(=O)N[C@@H](CCCCN)C(=O)N1CCC[C@@H]1C(=O)N1CCC[C@H]1C(=O)N[C@@H](Cc1ccc(O)cc1)C(=O)N[C@@H](CCCNC(=N)N)C(=O)N[C@@H](CCCNC(N)=O)C(=O)N2

Target: human CXCR4 (human, UniProt P61073 1-352)
Sequence (P61073 whole entry): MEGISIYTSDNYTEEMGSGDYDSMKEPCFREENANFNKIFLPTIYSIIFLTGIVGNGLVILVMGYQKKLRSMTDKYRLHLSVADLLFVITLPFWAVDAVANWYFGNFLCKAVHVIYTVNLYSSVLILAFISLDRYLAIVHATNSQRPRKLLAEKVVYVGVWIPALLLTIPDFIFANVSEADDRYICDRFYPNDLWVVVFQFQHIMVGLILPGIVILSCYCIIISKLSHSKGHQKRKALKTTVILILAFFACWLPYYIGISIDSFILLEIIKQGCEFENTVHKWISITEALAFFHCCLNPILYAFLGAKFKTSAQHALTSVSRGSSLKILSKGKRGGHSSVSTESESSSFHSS
Assay: cell-based or functional assay

Binder | IC50 (nM) Ca2+ assay (method 1) | IC50 (nM) Ca2+ assay (method 2)
B1 | 2280 nM | –
B2 | 850 nM | –
B3 | – | 4.7 nM
B4 | – | 4.1 nM
B5 | – | 1.28 nM
